The nanobody polyreactivity screen of Harvey et al. (2022)

assay: yeast display, Sf9 membrane polyspecificity reagent, FACS + sequencing; frameworks hold sequencing errors
Method in brief: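 Synthetic nanobody libraries on Saccharomyces cerevisiae BJ5465 were galactose-induced for 36–48 hours, stained 1 hour at 4 °C with 10% biotinylated, detergent-solubilized Sf9 membrane reagent and enriched on streptavidin microbeads. FACS then separated cells into low and high (top ~1%) gates by anti-HA (expression) and streptavidin (reagent binding) fluorescence. Genes were colony-PCR amplified, MiSeq 2 × 250 sequenced and CDR-length filtered. A clone's polyreactivity label is that of its gate of origin.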

Question: With “QVQRVESGGGLVQAGGSLRLSCAASGIIFRGYAMGWYRQAPGKERELVAAITSSGARTYYADSVKGRFTISRDNAKNTVYLQMNSLKPDDTAVYYCNATSSVRRYDSWGQGTQVTVSS” as the sequence, how does the “polyreactivity (PSR sort gate)” value read?
Answer: high polyreactivity

Question: For “QVQRVESGGGLVQAGGSLRLSCAASGRIFLIYAMGWYRPAPGKERELVAGISSGGSTYYADSVKGRFTISRDNAKNTVYLQMNSLKPEDTAVYYCAARRYYYRYLFGRYAYGYWGQGTQVNVSS”, which “polyreactivity (PSR sort gate)” value is on record?
Answer: low polyreactivity

Question: Which “polyreactivity (PSR sort gate)” value does the source give for “QVQRVESGGGLVQAGGSLRLSCAASGRIFRYYAMGWYRQAPGKERELVASISRRGGSTNYADSVKGRFTISRDNAKNTVYLQMNSLKPEYTAVYYSNAENWSPRGLYNYWGQGTQVTVSS” here?
Answer: high polyreactivity

Question: With “QVQRVESGGGLVQAGGSLRLSCAASGRIFVNYPIGWYRQAPGKERELVAAITSHGSTSYADSVKGRFTISRDNAKNTVYLQMNSLKPEDTAVYYCANDFFEHSPVSHTYSSSKYDYWGQGTQVTVSS” as the sequence, how does the “polyreactivity (PSR sort gate)” value read?
Answer: low polyreactivity

Question: For “QVQRVESGGGLVQAGGSLRLSCAASGSIFNSNAMGWYRLAHGKERELVAAINWRGGSTYYADSVKGRFTISRDNAKNTVYLQMNSLKPEDSAVYYCAAVGWFHDYYWGQGTQLTVSS”, which “polyreactivity (PSR sort gate)” value is on record?
Answer: high polyreactivity

Question: With “QVQRVESGGGLVQAGGSLRLSCAASGSIFSYNAMGWYRQAPGKERELVAAIRASGGDTYYADSVKGRFTISRDNAKNTVYLQMISLKPEDTAVYYCAARTYAHHYASHGYWGQGTQVTVSS” as the sequence, how does the “polyreactivity (PSR sort gate)” value read?
Answer: low polyreactivity

Question: For “QVQRVESGGGLVQAGGSLRLSCAASGSILFHYAMGWYRQAPGKEREMVAAISRRGGSTYYADSVKGRFSISRDNAKNTVYLQMNSLKPEDTAVYYCAKYPSAYVDSDVTYDMDYWGQGTQVTVSS”, which “polyreactivity (PSR sort gate)” value is on record?
Answer: low polyreactivity

Question: For “QVQRVESGGGLVQAGGSLRLSCAASGSILGIYGMGWYRQAPGKERELVAAISYSGGSTYYADSVKGRFTISSDNAKNTVYLQMNSLKPEDNAVYYCAADLTRGVSYYVDFYYWGQGTQVTVSS”, which “polyreactivity (PSR sort gate)” value is on record?
Answer: low polyreactivity

Question: For “QVQRVESGGGLVQAGGSLRLSCAASGSTFNRNALGWYRPEPGKERELVAAISWRGDSTSYADSVKGRFTITRDNAKNTVYLQMNSLKPEDTAVYNCASAHAYAFYRYWYVPSEYNYWGQGTQVTVSS”, which “polyreactivity (PSR sort gate)” value is on record?
Answer: low polyreactivity

Question: For “QVQRVESGGGLVQAGGSLRLSCAGSGRIFVQYAMGWYRQAPGKERELVAAISGSGGRTYYADSVKGRFTISRDNAKNTVYLQMNSLKPEDTAVYYCARRGAYTGRYDYWGQGTQVTVSS”, which “polyreactivity (PSR sort gate)” value is on record?
Answer: high polyreactivity

Question: For “QVQRVESGGGLVQAGGSLRLSCAGSGSTFAQNGMGWYRPAPGKERELVAAIRWNGGSTYYADSVKGRFTISRDNAKNTVYLQMNSLKPEDTAVYYCAARHPLYRVQHEDWGQGTQVTVSS”, which “polyreactivity (PSR sort gate)” value is on record?
Answer: low polyreactivity

Question: For “QVQRVESGGGLVQAGGSLRLSCAHSGRTFPRYVMGRYRQAPAKERELVAAITSSGGSTYYADSVKGRFTISRDNAKNTVYLQMNSLKPEDTAVYYCAAYARPYSGPYAYRLDYWGQGTQVTVSS”, which “polyreactivity (PSR sort gate)” value is on record?
Answer: high polyreactivity

Question: For “QVQRVESGGGLVQAGGSLRLSCSASGRTFGHNTMGRYRQAPGKETEFVAAIDFNGGSTYYADSVKGRFTISRDNAQNTVYLQMNSLKPEDTAVYYCAADIYFYYYGSYDYWGQGTQVTVSS”, which “polyreactivity (PSR sort gate)” value is on record?
Answer: low polyreactivity

Question: For “QVQRVESGGGLVQAGGSLRLSSADSGSTLSGYAMGWYRQAPGKERELVATIRITGGRTYYADSVKGRFTISRDNAKNTVYLQMNSLKPEDTAVYYCNVRSRRRVSSYDYWGQGTQVTVSS”, which “polyreactivity (PSR sort gate)” value is on record?
Answer: high polyreactivity

Question: Which “polyreactivity (PSR sort gate)” value does the source give for “QVQRVESGGGLVQAVGSLRLSCAPSGIIIPVKAMGWYRQAPGKERELVAAITTGGSTNYADSVKGRFTISRDNAKNNVYLQMNSLKPEDTAVYYCAADTARTRIFDYWGQGTQVTVSS” here?
Answer: low polyreactivity

Question: For “QVQRVESGGGLVQEGGSLSLSCAASGSTYKNAMGWYRQAPGKERELVAAITWSGGTTYYADSVKGRFTISRDNAKNTVYLQINSLKPEDTAVYYCAAEYRWYSRYFNYWGQGTQVTVSS”, which “polyreactivity (PSR sort gate)” value is on record?
Answer: high polyreactivity

Question: Which “polyreactivity (PSR sort gate)” value does the source give for “QVQRVETGGGLVQAAGSLRLSCAASGRTFRNYAMGWYRQAPGKERELVAAIRSGVRTYYADSVKGRFTISRDNAKNTVYLQMNSVKPEDTAVYYCAVATGLLYKSHGYCGQGTQVTVSS” here?
Answer: low polyreactivity

Question: Which “polyreactivity (PSR sort gate)” value does the source give for “QVQRVETGGGLVQARGSLRLSCAASGRIFACYTMGWFRQAPGKERELDAAISWNGGRTYYADSVKGRFTISRDNAKNTVYLQMNSLKPEDTAVYYCAAGKTPQKYGGFNYWGQGTQVTVSS” here?
Answer: high polyreactivity

Question: With “QVQVGESGGGLVQAGGSLSLSCAASGSIFPANAMGWYRQAPGKERELVAAITRGGRTYYADSVKGIFTISRDNAKNCVYLQMNSLKPEDTAVYDCAAYVLSKREYYRYDYWGQGTQVTVSS” as the sequence, how does the “polyreactivity (PSR sort gate)” value read?
Answer: high polyreactivity

Question: Which “polyreactivity (PSR sort gate)” value does the source give for “QVQVVESGGALVQAGGSLRLSCAASGRTFDWNAMGWYRQAPGKERELVAAITYSGGGTYYADSVKVRFTISRDHATNTVYLQMNSLKPEDTAVYYCAAGYPGTWSYYYWGQGTQVTVSS” here?
Answer: low polyreactivity

Question: Which “polyreactivity (PSR sort gate)” value does the source give for “QVQVVESGGGFVQAGGSLRLSCAASGRTFAVYAMGWYTQAPGKEREFVATISVSDGSTYYADTVKGRFTISRDNAKNTVYLQMNSLKPEDTAVYYCAAQRWTVKYNYWGQGTQVTVSS” here?
Answer: high polyreactivity

Question: With “QVQVVESGGGFVQAGGSLRLSCAASGRTFRYYAMGWYRQAPGKERELVAVISSSDSTNYADSVKGRFTISRDNAKNTVNLQMNSLKPEDTGVYYCAKVYRVIRPYGYWGQGTQVTVSS” as the sequence, how does the “polyreactivity (PSR sort gate)” value read?
Answer: high polyreactivity

Question: For “QVQVVESGGGIVQAGGSLRLSCAASGSIFETYAMGWYRQAPGKESELVAAISRTSGRTYYADSVKGRFTISRDNAMNSVYLQMNSLKPDDTAVYYCAAVVRNPGTYDYWGQGTQVTVSS”, which “polyreactivity (PSR sort gate)” value is on record?
Answer: high polyreactivity

Question: For “QVQVVESGGGLDQAGGSLGLSCAASGSIFIKYAMGWSRQAPRKERELVAAISRRGGSPYYADSVKGRFTISRDNAKNTVYLQMISLKPEDTAVYYCAAVNISFGYADRFYYVYRGDYWGQGTQVTVSS”, which “polyreactivity (PSR sort gate)” value is on record?
Answer: high polyreactivity

Question: Which “polyreactivity (PSR sort gate)” value does the source give for “QVQVVESGGGLLQAGVSLRLSCAASGRTFSKYDMGLYRQPPGKERELVAAITRTGSSTYYADSVKGRFTISRDNAKNTVYLQMNSLKPEDTAVYYCAADRYLRYSGSSSDYGYWVQGTQVTVSS” here?
Answer: low polyreactivity

Question: Which “polyreactivity (PSR sort gate)” value does the source give for “QVQVVESGGGLVQAGCSLRLSCAASGFTFRDYAMGWYRPAPGKERELVATITLRVGSTFYADSLKGRFTISRDNAKNTVYLQKNSLKPEDTAVYYCADEDSNVVAYDYWGQGTQVTVSS” here?
Answer: low polyreactivity

Question: Which “polyreactivity (PSR sort gate)” value does the source give for “QVQVVESGGGLVQAGGSHRLSCAASGSTFIRYPMGWYRQAPGKERELVAAITWSGGSTYYADSVKGRFTISRDNAKNTVYLQMNSLKPEDTAFYYCAARGPSLSNYRGRMYYWGQGTQVTVSS” here?
Answer: high polyreactivity

Question: For “QVQVVESGGGLVQAGGSLGLSCAASGSTFTRNAMGWYRQAPGKERELVAAITSSGGSTYYADSVKGRFTISRDNAKNTVYLLMNSLKPEDTAVYYCAAYVRPSYFGWMDYWGQGTQVTVSS”, which “polyreactivity (PSR sort gate)” value is on record?
Answer: low polyreactivity

Question: For “QVQVVESGGGLVQAGGSLRISCAASGRILGNNVMGWYRQAPWKERDLVAAITSSGGRTYYADSVKGRFTISRDNAKNTVYLQMNSLKPVDTAVYYCAAERRYYGKFNYWGHGTQVTVSS”, which “polyreactivity (PSR sort gate)” value is on record?
Answer: high polyreactivity

Question: With “QVQVVESGGGLVQAGGSLRLICAASGSTFYSYAMGWYRQAPGKERELVAPISSSGVRTYYADSVKGRFTISRDNAKNTVFLQMISLKPEDTAVYYCNTYLKRYVGRGGPSYYWGQGTQVTVSS” as the sequence, how does the “polyreactivity (PSR sort gate)” value read?
Answer: high polyreactivity

Question: Which “polyreactivity (PSR sort gate)” value does the source give for “QVQVVESGGGLVQAGGSLRLSCAASGFTFAVYAMGWYRQAPGKERELVAAISRSGTRTYYADSVKGRFTISRDNAKNTVYVQMNSLKPEDTAVYYCAADKYRHGYDYWGQGTQVTVSS” here?
Answer: low polyreactivity

Question: Which “polyreactivity (PSR sort gate)” value does the source give for “QVQVVESGGGLVQAGGSLRLSCAASGFTSTRYAMGWYRQAPGKERELVAAISYGGGDTYYADSVKGRFTISRDNAKNSVYLQMNSMKPEDTAVYYCNARGRYRKSERRAFDYWGQGTQVTVSS” here?
Answer: high polyreactivity

Question: For “QVQVVESGGGLVQAGGSLRLSCAASGITFFLNAMGWYRQAPGKERELVAAISSGAGTTYADSVKGRFTISRDNAKNTFFLQMKSLKPEDTAVYYCAAAGDYVVPISSTAGFGGDYWGQGTQVTVSS”, which “polyreactivity (PSR sort gate)” value is on record?
Answer: low polyreactivity

Question: Which “polyreactivity (PSR sort gate)” value does the source give for “QVQVVESGGGLVQAGGSLRLSCAASGLTFQVYAKGWYRQAPGKERELVARISSSGSSTYADSVKGRFTISRDNAKNTVYLQMNSLKPEDTAVYYCNAGKRQRGEYWGQGTQVTVSS” here?
Answer: high polyreactivity

Question: For “QVQVVESGGGLVQAGGSLRLSCAASGRIFGYNAMGWYRQAPGKERELVAAISSGGSTYYADSVKGRFTISRDNAKNTVYLLMHSLKPEDTAVYYCAAEDYPPYPTVYDYWGQGTQVTVSS”, which “polyreactivity (PSR sort gate)” value is on record?
Answer: low polyreactivity

Question: Which “polyreactivity (PSR sort gate)” value does the source give for “QVQVVESGGGLVQAGGSLRLSCAASGSIFFVYAMGWYRQAPGKERELVAAISSGDITYYADSVKGRFTISRDNAKNTVYLQLISLKPEDTAVYYCNAERLGNTLSPGGDDYWGQGTQVTVSS” here?
Answer: low polyreactivity

Question: With “QVQVVESGGGLVQAGGSLRLSCAASGSIFSGYAMGWYREAPGKERELVAAITSSGGSTYYADSVKGRFTISRDNAKKTVYLQMHSLKPEDTAVYYCAAYRYRYYSYDSWGQGTQVTVSS” as the sequence, how does the “polyreactivity (PSR sort gate)” value read?
Answer: high polyreactivity

Question: Which “polyreactivity (PSR sort gate)” value does the source give for “QVQVVESGGGLVQAGGSLRLSCAASGSIFSWNAMGWYRQAPGKERELVAAISKRGTSTYYADSVKGRFTISRDNAKNTVYLQMNSLKPEDTAVYYCAVSRIVDFGQKMYYWGQGTQVTVSS” here?
Answer: high polyreactivity

Question: With “QVQVVESGGGLVQAGGSLRLSCAASGSISDSYAMGWYRQAPGKERELVAAITSGDSTYYADSVKGRFTISRDNAKNTVYLQMNSLKPEDTAVYYCAKRVSRVRGYGFTDWSEYDYWGQVTQVTVSS” as the sequence, how does the “polyreactivity (PSR sort gate)” value read?
Answer: low polyreactivity

Question: With “QVQVVESGGGLVQAGGSLRLSCAASGSTFFFYAMGWYIHAPGKERELVAAISSTGRKYYADSVKGRFTISRDNAKNTVYLQMNSLTPEDTAVYYCAARIYSGYSYWGQCTQVTVSS” as the sequence, how does the “polyreactivity (PSR sort gate)” value read?
Answer: high polyreactivity
